Results on 3 substances are retold here after US7094554.

The IC50 is the concentration at which inhibition is half-maximal. Low values mean higher potency, high ones lower potency. A word on the Kd: it is a measure of binding affinity in units of concentration.

Experiment [1] concerns the target P. gossypiella (pink bollworm) midgut brush border membrane vesicle (BBMV) proteins (Pectinophora gossypiella). As to the kind of experiment: homologous competition, 125I-Cry1Ac against unlabeled Cry1Ac on BBMV.
For experiment [2] the target is unchanged. In words: homologous competition assay, 125I-toxin on BBMV.
Experiment [3] shares this target. In words: competition with 125I-Cry1Ac on BBMV.
The target is the same in experiment [4]. In words: saturation binding, fixed 125I-toxin with increasing BBMV.
Experiment [5] shares this target. In words: competition with 125I-Cry1Ac on BBMV, 1000 nM unlabeled toxin.
Experiment [6] has the same target. In words: homologous competition, 125I-Cry1Ab against unlabeled Cry1Ab on BBMV.
Experiment [7] shares this target. As to the kind of experiment: homologous competition, 125I-Cry1Aa against unlabeled Cry1Aa on BBMV.

In experiment [1], “Cry1Ac toxin (trypsinized 60 kD toxin) (from UniProt P05068 29-623) (ligand)” gave an IC50 of 0.01 µM. In experiment [2], this substance displayed a dissociation constant (Kd) of 0.0128 µM and a concentration of binding sites (Bmax) of 8.6 pmol/mg. In experiment [3], the half-maximal inhibitory concentration (IC50) is 0.01 µM. In experiment [4], this substance registered a fold difference in binding compared to Cry1Ab of 30 fold, a fold higher binding compared to Cry1Aa of 4 fold and a maximum saturable binding at 400 µg/ml of BBMV of 1.5 ng. This substance also registered a percent reduction of 125I-Cry1Ac binding at 1000 nM in experiment [5] of 95%.
Consider “Cry1Ab toxin (trypsinized 60 kD toxin) (from UniProt P0A370 29-620) (ligand)”, for which, in experiment [2], the Kd is 0.0124 µM and the concentration of binding sites (Bmax) amounted to 3.6 pmol/mg. Moreover, the half-maximal inhibitory concentration (IC50) in experiment [3] stood at 0.1 µM. The substance further gave a maximum saturable binding at 400 µg/ml of BBMV in experiment [4] of 0.05 ng. This substance registered a percent reduction of 125I-Cry1Ac binding at 1000 nM in experiment [5] of 82%. In experiment [6], this substance displayed an IC50 of 0.01 µM.
“Cry1Aa toxin (trypsinized 60 kD toxin) (from UniProt P0A366 29-619) (ligand)” displayed an IC50 in experiment [7] of 0.01 µM. In experiment [2], this substance had a Kd of 0.0165 µM and a concentration of binding sites (Bmax) of 3.7 pmol/mg. The substance further returned an IC50 in experiment [3] of 0.1 µM. Further, the maximum saturable binding at 400 µg/ml of BBMV in experiment [4] is 0.35 ng. In experiment [5], the percent reduction of 125I-Cry1Ac binding at 1000 nM worked out at 80%.
